# Data: patent US9937235B2, “Lipidated peptides as anti-obesity agents” (USTAV ORGANICKE CHEMIE A BIOCHEMIE AKADEMIE VED CR, V.V.I, priority 2012, dated 2018)
# Like-named read-outs stand apart in the source and are kept apart here. Where a SMILES comes first, the peptide text is derived from it. Where no end group is shown, it is not given here. [ ]: non-standard residue; d: D form. The star is where a group is joined. Palmitoyl = CCCCCCCCCCCCCCCC(=O)*; Tridecanoyl = CCCCCCCCCCCCC(=O)*; Myristoyl = CCCCCCCCCCCCCC(=O)*; NMeA = CN[C@@H](C)C(=O)O; Nle = CCCC[C@H](N)C(=O)O; Dap = NC[C@H](N)C(=O)O
# T1: rat PrRP receptor (GPR10) in RC-4B/C cells (Rattus norvegicus, UniProt Q64121)
# T1 construct: host or cells: RC-4B/C rat pituitary cell line
# T1 sequence (Q64121 1-370): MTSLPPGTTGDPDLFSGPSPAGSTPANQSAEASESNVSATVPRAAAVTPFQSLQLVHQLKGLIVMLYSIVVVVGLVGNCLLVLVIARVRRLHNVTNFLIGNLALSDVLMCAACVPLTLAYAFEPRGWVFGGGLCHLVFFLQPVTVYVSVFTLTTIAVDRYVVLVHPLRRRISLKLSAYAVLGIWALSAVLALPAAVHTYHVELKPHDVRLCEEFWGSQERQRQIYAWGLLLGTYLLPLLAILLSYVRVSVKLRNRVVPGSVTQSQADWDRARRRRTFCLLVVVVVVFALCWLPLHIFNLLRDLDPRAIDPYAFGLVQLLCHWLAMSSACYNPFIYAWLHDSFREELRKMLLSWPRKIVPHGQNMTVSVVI
# T2: rat PrRP receptor in RC-4B/C cells (rat, UniProt Q64121 1-370)
# T2 construct: whole, on cells; also called the rat receptor; GPR10
# T2 sequence (looked up): T1 sequence (Q64121 1-370)
# T3: human PrRP receptor, GPR10, transfected in CHO cells (human, UniProt P49683 1-370)
# T3 construct: whole, on cells; also called human GPR10 receptor; the human receptor GPR10 in CHO cells
# T3 sequence (looked up): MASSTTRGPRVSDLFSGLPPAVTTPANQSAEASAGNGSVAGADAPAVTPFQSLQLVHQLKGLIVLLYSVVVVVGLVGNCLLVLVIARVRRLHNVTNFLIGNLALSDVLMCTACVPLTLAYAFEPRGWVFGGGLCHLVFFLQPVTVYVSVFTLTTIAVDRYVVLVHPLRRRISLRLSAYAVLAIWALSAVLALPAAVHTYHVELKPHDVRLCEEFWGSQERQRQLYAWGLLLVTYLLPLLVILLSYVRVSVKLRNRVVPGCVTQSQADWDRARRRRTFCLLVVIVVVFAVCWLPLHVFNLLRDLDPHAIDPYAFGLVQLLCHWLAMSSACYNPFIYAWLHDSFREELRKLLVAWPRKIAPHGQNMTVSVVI
# B1: analog no. 41 (peptide)
# peptide: Myristoyl-TPDINPAWY[NMeA]SRGIRPVGRF-NH2
# SMILES: CCCCCCCCCCCCCC(=O)N[C@H](C(=O)N1CCC[C@H]1C(=O)N[C@@H](CC(=O)O)C(=O)N[C@H](C(=O)N[C@@H](CC(N)=O)C(=O)N1CCC[C@H]1C(=O)N[C@@H](C)C(=O)N[C@@H](Cc1c[nH]c2ccccc12)C(=O)N[C@@H](Cc1ccc(O)cc1)C(=O)N(C)[C@@H](C)C(=O)N[C@@H](CO)C(=O)N[C@@H](CCCNC(=N)N)C(=O)NCC(=O)N[C@H](C(=O)N[C@@H](CCCNC(=N)N)C(=O)N1CCC[C@H]1C(=O)N[C@H](C(=O)NCC(=O)N[C@@H](CCCNC(=N)N)C(=O)N[C@@H](Cc1ccccc1)C(N)=O)C(C)C)[C@@H](C)CC)[C@@H](C)CC)[C@@H](C)O
# B2: analog no. 4 (peptide)
# peptide: [Dap](Tridecanoyl)RAHQHS[Nle]ETRTPDINPAWYTGRGIRPVGRF-NH2
# modifications: N-terminus assumed
# SMILES: CCCCCCCCCCCCC(=O)NC[C@H](N)C(=O)N[C@@H](CCCNC(=N)N)C(=O)N[C@@H](C)C(=O)N[C@@H](Cc1c[nH]cn1)C(=O)N[C@@H](CCC(N)=O)C(=O)N[C@@H](Cc1c[nH]cn1)C(=O)N[C@@H](CO)C(=O)N[C@@H](CCCC)C(=O)N[C@@H](CCC(=O)O)C(=O)N[C@H](C(=O)N[C@@H](CCCNC(=N)N)C(=O)N[C@H](C(=O)N1CCC[C@H]1C(=O)N[C@@H](CC(=O)O)C(=O)N[C@H](C(=O)N[C@@H](CC(N)=O)C(=O)N1CCC[C@H]1C(=O)N[C@@H](C)C(=O)N[C@@H](Cc1c[nH]c2ccccc12)C(=O)N[C@@H](Cc1ccc(O)cc1)C(=O)N[C@H](C(=O)NCC(=O)N[C@@H](CCCNC(=N)N)C(=O)NCC(=O)N[C@H](C(=O)N[C@@H](CCCNC(=N)N)C(=O)N1CCC[C@H]1C(=O)N[C@H](C(=O)NCC(=O)N[C@@H](CCCNC(=N)N)C(=O)N[C@@H](Cc1ccccc1)C(N)=O)C(C)C)[C@@H](C)CC)[C@@H](C)O)[C@@H](C)CC)[C@@H](C)O)[C@@H](C)O
# notes: analog of rat PrRP31
# B3: analog no. 10 (peptide)
# peptide: Myristoyl-TPDINPAWYTGRGIRPVGRF-NH2
# SMILES: CCCCCCCCCCCCCC(=O)N[C@H](C(=O)N1CCC[C@H]1C(=O)N[C@@H](CC(=O)O)C(=O)N[C@H](C(=O)N[C@@H](CC(N)=O)C(=O)N1CCC[C@H]1C(=O)N[C@@H](C)C(=O)N[C@@H](Cc1c[nH]c2ccccc12)C(=O)N[C@@H](Cc1ccc(O)cc1)C(=O)N[C@H](C(=O)NCC(=O)N[C@@H](CCCNC(=N)N)C(=O)NCC(=O)N[C@H](C(=O)N[C@@H](CCCNC(=N)N)C(=O)N1CCC[C@H]1C(=O)N[C@H](C(=O)NCC(=O)N[C@@H](CCCNC(=N)N)C(=O)N[C@@H](Cc1ccccc1)C(N)=O)C(C)C)[C@@H](C)CC)[C@@H](C)O)[C@@H](C)CC)[C@@H](C)O
# notes: myristoylated rat PrRP20
# Experiments:
# [1] = biological target: T1, rat PrRP receptor (GPR10) in RC-4B/C cells; assay: Competitive binding to rat pituitary RC-4B/C cells
# Protocol: Competitive binding experiments were performed according to Motulsky and Neubig (Motulsky, A., et al., “Analyzing radioligand binding data,” Curr Protoc Neurosci, Chapter 7, Unit 7.5, 2002). The rat pituitary cell line RC-4B/C (ATCC, Manassas, USA) was grown on 24-well plates which had their bottom coated with polyethyleneimine. The cells were grown to the optimal density of 300-450 thousand per well. […] Plates were incubated for 60 minutes at room temperature. After incubation, the cells were solubilized in 0.1 mol/l solution of NaOH and the radioactivity bound to the cells was counted using a γ-counter. The experiments were performed in duplicate and repeated at least three times. For evaluation of competitive binding experiments, the program Graph Pad Prism Software (San Diego, Calif., USA) was used. A method of nonlinear regression assuming one-site binding was used.
# fasted C57BL/6 mice = assay: Food intake in fasted mice after SC administration; type: in vivo, mouse; details: fasted C57BL/6 mice, 5 mg/kg SC, 45 min
# Procedure, shortened: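 Male C57BL/6 mice, food-deprived 17 h, received saline, PrRP or lipidated analogs either SC at 1-10 mg/kg or ICV into the third ventricle at 4 nmol/mouse.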
# [2] = biological target: T2, rat PrRP receptor in RC-4B/C cells; assay: competition with 125I-rat PrRP31 on RC-4B/C cells
# [3] = biological target: T3, human PrRP receptor, GPR10, transfected …; assay: competition with 125I-human PrRP31 on CHO cells with transfected human GPR10
# Protocol: CHO cells with transfected human PrRP receptor, GPR10 (Perkin Elmer, USA) were grown on 24-well plates coated with polyethyleneimine. The cells were grown to the optimal density of 40-80 thousand cells per well.
# (§1) Plates were incubated for 60 minutes at room temperature. After incubation, the cells were solubilized in 0.1 mol/l solution of NaOH and the radioactivity bound to the cells was counted using a γ-counter. The experiments were performed in duplicate and repeated at least three times.
# [4] = biological target: T2, rat PrRP receptor in RC-4B/C cells; assay: competition with 125I-rat PrRP31 on RC-4B/C cells; remark: listed apart in the source
# Protocol: (§2) The rat pituitary cell line RC-4B/C (ATCC, Manassas, USA) was grown on 24-well plates which had their bottom coated with polyethyleneimine. The cells were grown to the optimal density of 300-450 thousand per well.
# as §1
# [5] = biological target: T2, rat PrRP receptor in RC-4B/C cells; assay: competition with 125I-rat PrRP31 on RC-4B/C cells; Ki by Cheng-Prusoff
# Protocol: as §2, §1
# For evaluation of competitive binding experiments, the program Graph Pad Prism Software (San Diego, Calif., USA) was used. A method of nonlinear regression assuming one-site binding was used.
# [6] = rat RC-4B/C cells, Table 5, read-out: C-4B/C cells ^25I-rat PrRP31 Ki
Molecule,"Ki [1, 6] [pM]",% of PrRP31 binding [4] [%],Ki [5] [pM],further results
CCCCCCCCCCCCCC(=O)N[C@H](C(=O)N1CCC[C@H]1C(=O)N[C@@H](CC(=O)O)C(=O)N[C@H](C(=O)N[C@@H](CC(N)=O)C(=O)N1CCC[C@H]1C(=O)N[C@@H](C)C(=O)N[C@@H](Cc1c[nH]c2ccccc12)C(=O)N[C@@H](Cc1ccc(O)cc1)C(=O)N[C@@H](C)C(=O)N[C@@H](CO)C(=O)N[C@@H](CCCNC(=N)N)C(=O)NCC(=O)N[C@H](C(=O)N[C@@H](CCCNC(=N)N)C(=O)N1CCC[C@H]1C(=O)N[C@H](C(=O)NCC(=O)N[C@@H](CCCNC(=N)N)C(=O)N[C@@H](Cc1ccccc1)C(N)=O)C(C)C)[C@@H](C)CC)[C@@H](C)CC)[C@@H](C)O [Analog 13] (Myristoyl-TPDINPAWYASRGIRPVGRF-NH2),–,–,–,"Ki ([1]; ^125I-rat PrRP31, RC-4B/C cells, Table 3, read-out: ^125I-rat PrRP31 Ki): 410 ± 130 pM"
CCCCCCCCCCCCCCCC(=O)N[C@@H](CO)C(=O)N[C@@H](CCCNC(=N)N)C(=O)N[C@@H](C)C(=O)N[C@@H](Cc1c[nH]cn1)C(=O)N[C@@H](CCC(N)=O)C(=O)N[C@@H](Cc1c[nH]cn1)C(=O)N[C@@H](CO)C(=O)N[C@@H](CCCC)C(=O)N[C@@H](CCC(=O)O)C(=O)N[C@H](C(=O)N[C@@H](CCCNC(=N)N)C(=O)N[C@H](C(=O)N1CCC[C@H]1C(=O)N[C@@H](CC(=O)O)C(=O)N[C@H](C(=O)N[C@@H](CC(N)=O)C(=O)N1CCC[C@H]1C(=O)N[C@@H](C)C(=O)N[C@@H](Cc1c[nH]c2ccccc12)C(=O)N[C@@H](Cc1ccc(O)cc1)C(=O)N[C@H](C(=O)NCC(=O)N[C@@H](CCCNC(=N)N)C(=O)NCC(=O)N[C@H](C(=O)N[C@@H](CCCNC(=N)N)C(=O)N1CCC[C@H]1C(=O)N[C@H](C(=O)NCC(=O)N[C@@H](CCCNC(=N)N)C(=O)N[C@@H](Cc1ccccc1)C(N)=O)C(C)C)[C@@H](C)CC)[C@@H](C)O)[C@@H](C)CC)[C@@H](C)O)[C@@H](C)O [Analog 19] (Palmitoyl-SRAHQHS[Nle]ETRTPDINPAWYTGRGIRPVGRF-NH2),510 ± 160,–,–,Food intake in mice (5 mg/kg SC) % saline-treated group (45 min) (fasted C57BL/6 mice): 2%
CCCCCCCCCCCCCC(=O)N[C@H](C(=O)N1CCC[C@H]1C(=O)N[C@@H](CC(=O)O)C(=O)N[C@H](C(=O)N[C@@H](CC(N)=O)C(=O)N1CCC[C@H]1C(=O)N[C@@H](C)C(=O)N[C@@H](Cc1c[nH]c2ccccc12)C(=O)N[C@@H](Cc1ccc(O)cc1)C(=O)N(C)[C@@H](C)C(=O)N[C@@H](CO)C(=O)N[C@@H](CCCNC(=N)N)C(=O)NCC(=O)N[C@H](C(=O)N[C@@H](CCCNC(=N)N)C(=O)N1CCC[C@H]1C(=O)N[C@H](C(=O)NCC(=O)N[C@@H](CCCNC(=N)N)C(=O)N[C@@H](Cc1ccccc1)C(N)=O)C(C)C)[C@@H](C)CC)[C@@H](C)CC)[C@@H](C)O [Analog 41] (Myristoyl-TPDINPAWY[NMeA]SRGIRPVGRF-NH2),460 ± 50,–,–,–
CCCCCCCCCCCCCCCC(=O)N[C@@H](CO)C(=O)N[C@@H](CCCNC(=N)N)C(=O)N[C@@H](C)C(=O)N[C@@H](Cc1c[nH]cn1)C(=O)N[C@@H](CCC(N)=O)C(=O)N[C@@H](Cc1c[nH]cn1)C(=O)N[C@@H](CO)C(=O)N[C@@H](CCSC)C(=O)N[C@@H](CCC(=O)O)C(=O)N[C@H](C(=O)N[C@@H](CCCNC(=N)N)C(=O)N[C@H](C(=O)N1CCC[C@H]1C(=O)N[C@@H](CC(=O)O)C(=O)N[C@H](C(=O)N[C@@H](CC(N)=O)C(=O)N1CCC[C@H]1C(=O)N[C@@H](C)C(=O)N[C@@H](Cc1c[nH]c2ccccc12)C(=O)N[C@@H](Cc1ccc(O)cc1)C(=O)N[C@H](C(=O)NCC(=O)N[C@@H](CCCNC(=N)N)C(=O)NCC(=O)N[C@H](C(=O)N[C@@H](CCCNC(=N)N)C(=O)N1CCC[C@H]1C(=O)N[C@H](C(=O)NCC(=O)N[C@@H](CCCNC(=N)N)C(=O)N[C@@H](Cc1ccccc1)C(N)=O)C(C)C)[C@@H](C)CC)[C@@H](C)O)[C@@H](C)CC)[C@@H](C)O)[C@@H](C)O [Analog 61] (Palmitoyl-SRAHQHSMETRTPDINPAWYTGRGIRPVGRF-NH2),410 ± 120,–,–,Food intake in mice (5 mg/kg SC) % saline-treated group (45 min) (fasted C57BL/6 mice): 2%
B1,–,–,–,Ki [2]: 460 pM; Ki [3]: 2100 pM
B2,–,967,510,–
TPDINPAWYTGRGIRPVGRF-NH2 [Rat PrRP20],–,143,3440,–
B3,–,632,780,–
